PMC11672854
Where a chain is given by its changes, count along the chain named. Numbers in names are those of the source. One block for each binder: values may come before it.

Experiments:
Assay in all cases: ELISA
[1] = molecular target: anti-AGR2 monoclonal antibody MAb-15 (VH-VL of scFv-15 in a full human IgG1 backbone); conditions: chain shown with the change; point at 1000 pM mAb-15 (highest concentration); plate coated with the AGR2 mutant; parent: est. 2.8; read off a plot
[2] = molecular target: BSA, P02769; conditions: chain shown with the change; plates coated with AGR2 or BSA (control); parent: 101
[3] = molecular target: T1, Thioredoxin (TXN), P10599; conditions: chain shown with the change; plates coated with AGR2 or thioredoxin (TXN); parent: 30
T1 chain: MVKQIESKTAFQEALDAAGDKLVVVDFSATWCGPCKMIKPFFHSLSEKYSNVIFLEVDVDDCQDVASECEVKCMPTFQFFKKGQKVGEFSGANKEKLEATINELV

[4] = molecular target: PDI (PDIA1), P07237; conditions: chain shown with the change; plates coated with AGR2 or PDI (PDIA1); parent: 40
Sequence of PDI (PDIA1), P07237 (P07237 18-508): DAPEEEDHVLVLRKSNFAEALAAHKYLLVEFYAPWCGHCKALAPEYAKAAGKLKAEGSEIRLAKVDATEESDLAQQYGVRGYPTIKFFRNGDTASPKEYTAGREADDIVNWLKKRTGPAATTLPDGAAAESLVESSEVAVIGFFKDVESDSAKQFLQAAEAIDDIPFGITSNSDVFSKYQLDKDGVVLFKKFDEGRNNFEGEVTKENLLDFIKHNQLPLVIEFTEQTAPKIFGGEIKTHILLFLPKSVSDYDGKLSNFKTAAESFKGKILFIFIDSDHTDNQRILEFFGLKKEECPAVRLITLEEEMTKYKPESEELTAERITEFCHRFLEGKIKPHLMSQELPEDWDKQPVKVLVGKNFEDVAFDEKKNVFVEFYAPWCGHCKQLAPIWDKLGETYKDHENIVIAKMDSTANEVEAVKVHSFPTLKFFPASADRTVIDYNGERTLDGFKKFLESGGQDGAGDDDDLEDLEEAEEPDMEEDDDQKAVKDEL

Sequence of BSA, P02769 (P02769 25-607): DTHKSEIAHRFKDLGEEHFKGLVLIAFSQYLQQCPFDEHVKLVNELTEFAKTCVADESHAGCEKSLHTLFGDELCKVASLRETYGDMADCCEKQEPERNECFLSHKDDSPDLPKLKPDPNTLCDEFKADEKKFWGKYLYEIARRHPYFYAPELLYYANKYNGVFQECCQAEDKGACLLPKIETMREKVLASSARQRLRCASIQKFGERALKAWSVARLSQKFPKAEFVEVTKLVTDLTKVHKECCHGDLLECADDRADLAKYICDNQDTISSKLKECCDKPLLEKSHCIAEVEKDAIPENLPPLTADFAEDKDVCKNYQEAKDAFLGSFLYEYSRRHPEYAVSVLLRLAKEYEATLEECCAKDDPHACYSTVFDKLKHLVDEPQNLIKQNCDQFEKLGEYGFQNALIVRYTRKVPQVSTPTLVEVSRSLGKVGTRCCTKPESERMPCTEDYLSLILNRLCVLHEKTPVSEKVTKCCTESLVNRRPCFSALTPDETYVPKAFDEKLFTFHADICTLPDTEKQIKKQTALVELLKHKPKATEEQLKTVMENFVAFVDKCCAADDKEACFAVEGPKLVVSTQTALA

response [1]: 2.7 OD450
B3: Anterior Gradient-2 (AGR2/PDIA17), AGR2 (21-175), 6x-His tag removed, O95994 S84A (protein)
chain: RDTTVKPGAKKDTKDSRPKLPQTLSRGWGDQLIWTQTYEEALYKSKTSNKPLMIIHHLDECPHAQALKKVFAENKEIQKLAEQFVLLNLVYETTDKHLSPDGQYVPRIMFVDPSLTVRADITGRYSNRLYAYEPADTALLLDNMKKALKLLKTEL

other: AGR2 Specificity, BSA/AGR2 (EC50 relative to AGR2 binding) [2]: 751
other: AGR2 Specificity, TXN/AGR2 (EC50 relative to AGR2 binding) [3]: 266
other: AGR2 Specificity, PDI/AGR2 (EC50 relative to AGR2 binding) [4]: 451
B5: anti-AGR2 monoclonal antibody MAb-15 (VH-VL of scFv-15 in a full human IgG1 backbone) S31R; A53Y (protein)
chain 1: EVQLLESGGGLVQPGGSLRLSCAASGFTFSRYAMSWVRQAPGKGLEWVSGISYQGAHTTYADSVKGRFTISRDNSKNTLYLQMNSLRAEDTAVYYCAKTYKGFDYWGQGTLVTVSS
chain 2: DIQMTQSPSSLSASVGDRVTITCRASQSISSYLNWYQQKPGKAPKLLIYSASRLQSGVPSRFSGSGSGTDFTLTISSLQPEDFATYYCQQGRRMPPTFGQGTKVEIK

More lines, now with the values behind:

B1: Anterior Gradient-2 (AGR2/PDIA17), AGR2 (21-175), 6x-His tag removed, O95994 E60A (protein)
chain: B3 chain with E40A, A64S
response [1]: 2.3 OD450

B2: Anterior Gradient-2 (AGR2/PDIA17), AGR2 (21-175), 6x-His tag removed, O95994 C81A (protein)
chain: B3 chain with C61A, A64S
response [1]: 2.8 OD450

B4: Anterior Gradient-2 (AGR2/PDIA17), AGR2 (21-175), 6x-His tag removed, O95994 C81A; S84A (protein)
chain: B3 chain with C61A
response [1]: 2.3 OD450
